These results are taken from PMC4033627 (Biochemistry, 2014).

For assay [1], the target named is ubiquitin (from a pRSETA plasmid, for isothermal titration calorimetry) (UniProt P0CG48 1-76). The experiment in a line: ITC.
For assay [2], the target named is human ubiquitin (from pGEX-6P1) (human, UniProt P0CG48 1-76). Briefly: crystal structure.

B1: catalytic domain of Sst2 (residues 245–435), Sst2^cat (domain or fragment)
chain: AGTFKIHAYTEGGKPLRTIYLPKLLKKVFLDVVKPNTKKNLETCGILCGKLRQNAFFITHLVIPLQEATSDTCGTTDEASLFEFQDKHNLLTLGWIHTHPTQTCFMSSVDLHTHCSYQLMLPEAIAIVMAPSKNTSGIFRLLDPEGLQTIVKCRKPGLFHPHEGKVYTMVAQPGHVREINSKLQVVDLRVK
With B1, binding in assay [1] was put at a Kd of 10.2 ± 0.6 µM.

B2: Sst2^catE286A (Glu286Ala mutant of the catalytic domain of Sst2) (domain or fragment)
chain: AGTFKIHAYTEGGKPLRTIYLPKLLKKVFLDVVKPNTKKNLATCGILCGKLRQNAFFITHLVIPLQEATSDTCGTTDEASLFEFQDKHNLLTLGWIHTHPTQTCFMSSVDLHTHCSYQLMLPEAIAIVMAPSKNTSGIFRLLDPEGLQTIVKCRKPGLFHPHEGKVYTMVAQPGHVREINSKLQVVDLRVK
Molecule B2 returned a Kd in assay [1] of 3 ± 0.56 µM.

B3: Sst2^catD354A (Asp354Ala mutant of the catalytic domain of Sst2) (domain or fragment)
chain: AGTFKIHAYTEGGKPLRTIYLPKLLKKVFLDVVKPNTKKNLETCGILCGKLRQNAFFITHLVIPLQEATSDTCGTTDEASLFEFQDKHNLLTLGWIHTHPTQTCFMSSVALHTHCSYQLMLPEAIAIVMAPSKNTSGIFRLLDPEGLQTIVKCRKPGLFHPHEGKVYTMVAQPGHVREINSKLQVVDLRVK
With B3, the binding result in assay [2] is listed as “binds”.

What is called Kd is a measure of binding affinity in units of concentration. A low value points to tighter binding.
